Results reported in the Human Domainome abundance scans (Beltran et al. 2025).

B1: Zinc finger MYM-type protein 6, residues 427 to 504; numbered along this chain, O95789 (parent)
chain: KLKCQHCNHLFATKPELLFYKGKMFLFCGKNCSDEYKKKNKVVAMCDYCKLQKIIKETVRFSGVDKPFCSEVCKFLSA

Variants of: B1
Experiment: abundance fitness (aPCA) (normalised: wild type 0, dead -1); higher = more abundant; growth selection in yeast, the domain comes from the species named
Settings: Homo sapiens

Abundance fitness: each site, then its substitutions
F19: Q 0.081; R 0.103; S 0.033; T -0.03; W -0.005
Y20: A 0.031; C -0.023; D -0.033; F 0.054; G -0.078; H -0.079; I 0.031; K -0.123; L 0; M -0.062; N -0.059; Q -0.01; R -0.121; T 0.019
K21: A 0.001; C -0.036; D -0.004; E 0.008; F -0.03; G 0.019; H -0.018; L -0.007; M -0.031; N -0.03; Q -0.03; R -0.025; S 0.012; V -0.155; W -0.133; Y -0.099
G22: A -0.065; C -0.063; D -0.215; E 0.049; F -0.254; L -0.231; M -0.118; P -0.33; Q -0.011; S -0.049; T -0.054; V -0.255; W -0.226
K23: A -0.045; C -0.172; D -0.09; E 0.062; F -0.15; G -0.067; H -0.048; I -0.129; L -0.067; M -0.041; N -0.001; Q -0.097; S -0.058; T -0.036; V -0.091; W -0.419
M24: A -0.083; C -0.004; D 0; E 0.111; G -0.059; I 0.19; L -0.109; P 0.034; Q 0.101; R 0.13; S 0.012; T 0.118; V -0.172; W -0.065; Y -0.249
F25: A 0.033; C -0.004; D -0.031; E -0.049; G -0.028; H -0.109; I -0.126; K -0.067; L 0.043; M 0.048; P -0.17; S -0.036; V -0.009; W -0.027
L26: A 0.05; C 0.004; D -0.066; E 0.118; F -0.148; G 0.125; K 0.09; M -0.015; N 0.097; P -0.03; Q 0.166; R 0.089; S 0.054; T 0.035; V 0.037; W -0.053
F27: C -0.025; D -0.553; E -0.508; G -0.545; H -0.405; I -0.365; K -0.727; L -0.073; M -0.066; N -0.512; Q -0.527; R -0.805; S -0.459; T -0.161; V -0.161; W -0.372
C28: A -1; D -0.352; E -0.671; F -0.855; G -0.866; H -0.608; K -0.731; L -0.859; M -0.752; N -0.367; Q -1.28; R -0.877; S -0.969; V -1.1; W -1
G29: A -0.033; C -0.096; D -0.386; E -0.131; H -0.333; K -0.004; L -0.345; M -0.084; P -0.683; Q -0.09; R -0.104; S -0.123; T -0.145; V -0.204; W -0.602
K30: C -0.24; D -0.138; E -0.037; F -0.101; G -0.032; H -0.063; I 0.021; L -0.061; M -0.059; P -0.107; Q -0.096; S -0.049
